The supplement of paper PMC9876800

Tested on: peptide library, one residue held at a place counted from the S/T acceptor
Experiment: relative phosphorylation of the sub-library (ratio to the mean residue at this position); higher = residue favoured
Method in brief: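 Human or orthologue kinase constructs, purified and recombinant, were incubated under kinase-specific conditions in 384-well plates with biotinylated degenerate peptide sub-libraries. Each sub-library fixed one residue at one position around a central Ser/Thr. Incubations lasted 90 min with peptides at 50 μM and 50 μM ATP spiked with γ-32P-ATP, after which spots on streptavidin membranes were phosphorimaged and quantified by densitometry. Relative sub-library phosphorylation is a ratio to the mean residue at that position.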

Chain of WNK4, construct: aa1-444, human (Q96J92 1-444, looked up): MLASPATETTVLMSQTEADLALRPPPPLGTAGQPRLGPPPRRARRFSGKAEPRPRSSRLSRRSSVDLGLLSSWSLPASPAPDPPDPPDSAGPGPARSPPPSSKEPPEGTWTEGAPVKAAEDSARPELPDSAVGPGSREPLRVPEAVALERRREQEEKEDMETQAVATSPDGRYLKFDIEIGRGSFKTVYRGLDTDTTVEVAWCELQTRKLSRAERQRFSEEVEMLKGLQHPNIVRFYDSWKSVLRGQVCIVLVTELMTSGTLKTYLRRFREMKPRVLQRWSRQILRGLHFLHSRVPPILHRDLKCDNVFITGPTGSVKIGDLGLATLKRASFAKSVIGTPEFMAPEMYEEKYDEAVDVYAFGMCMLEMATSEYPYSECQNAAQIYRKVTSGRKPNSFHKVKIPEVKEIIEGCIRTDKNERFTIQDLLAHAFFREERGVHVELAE
Chain of TSSK6, construct: Full length, human (Q9BXA6 whole entry, looked up): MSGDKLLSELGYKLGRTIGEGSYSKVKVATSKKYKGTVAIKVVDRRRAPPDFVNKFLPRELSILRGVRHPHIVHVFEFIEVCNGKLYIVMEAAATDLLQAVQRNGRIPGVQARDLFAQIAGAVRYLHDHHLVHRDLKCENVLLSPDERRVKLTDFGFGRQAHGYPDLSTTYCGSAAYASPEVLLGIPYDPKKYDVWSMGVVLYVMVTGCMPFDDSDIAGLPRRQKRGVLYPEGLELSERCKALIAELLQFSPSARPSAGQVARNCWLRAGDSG
Chain of TTBK2, construct: aa1-450, human (Q6IQ55 1-450, looked up): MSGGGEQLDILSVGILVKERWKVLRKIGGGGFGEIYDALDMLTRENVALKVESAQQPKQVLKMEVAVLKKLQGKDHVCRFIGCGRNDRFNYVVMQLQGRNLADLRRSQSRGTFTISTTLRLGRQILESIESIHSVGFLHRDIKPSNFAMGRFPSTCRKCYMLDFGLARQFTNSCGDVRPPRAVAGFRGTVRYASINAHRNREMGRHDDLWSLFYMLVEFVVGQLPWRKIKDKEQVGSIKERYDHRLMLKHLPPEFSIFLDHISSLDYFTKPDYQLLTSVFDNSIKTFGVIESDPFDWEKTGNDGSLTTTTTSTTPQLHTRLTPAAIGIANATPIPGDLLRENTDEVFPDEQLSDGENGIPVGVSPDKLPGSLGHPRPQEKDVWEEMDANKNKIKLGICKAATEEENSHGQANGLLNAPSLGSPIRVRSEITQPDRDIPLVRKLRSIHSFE
Chain of VRK2, construct: Full length, human (Q86Y07 whole entry, looked up): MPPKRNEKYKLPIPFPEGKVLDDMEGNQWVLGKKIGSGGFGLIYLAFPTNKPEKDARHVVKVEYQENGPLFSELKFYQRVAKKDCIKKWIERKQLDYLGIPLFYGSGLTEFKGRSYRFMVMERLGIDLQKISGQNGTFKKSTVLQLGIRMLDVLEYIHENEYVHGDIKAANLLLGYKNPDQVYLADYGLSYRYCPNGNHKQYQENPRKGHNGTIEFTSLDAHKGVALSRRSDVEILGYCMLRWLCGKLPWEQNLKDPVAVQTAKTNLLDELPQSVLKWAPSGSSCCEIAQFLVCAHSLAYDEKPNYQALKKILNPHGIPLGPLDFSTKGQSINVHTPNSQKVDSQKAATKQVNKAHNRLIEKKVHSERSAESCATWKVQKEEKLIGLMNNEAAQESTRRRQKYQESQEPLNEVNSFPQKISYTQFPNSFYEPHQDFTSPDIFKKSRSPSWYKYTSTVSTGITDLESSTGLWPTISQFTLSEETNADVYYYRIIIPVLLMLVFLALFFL

TSSK6, construct: Full length, human (from UniProt Q9BXA6)
relative phosphorylation
Conditions	at +1	at +2	at +3	at +4	at -1	at -2	at -3	at -4	at -5
A fixed	0.866	0.53	0.939	0.483	1.08	1.85	1.52	1.26	2.13
D fixed	0.814	0.32	1.61	0.385	0.442	0.203	0.21	0.354	0.243
E fixed	0.876	0.568	0.702	0.265	0.603	0.328	0.335	0.562	0.234
F fixed	0.806	1.16	1.03	1.5	0.537	0.586	0.45	0.532	0.466
G fixed	0.426	0.258	0.513	0.584	0.604	0.649	0.965	1.22	0.542
H fixed	1.23	3.4	1.89	0.696	0.82	0.868	0.848	1.32	0.607
I fixed	0.765	1.51	0.506	2.46	0.579	0.891	0.724	0.673	1.45
K fixed	1.45	0.403	1.09	0.543	2.1	3.12	2.57	2.67	0.911
L fixed	0.925	1.38	0.645	3.38	0.657	0.416	0.61	0.721	1.71
M fixed	1.16	1.69	0.825	1.68	0.874	0.629	0.779	0.968	0.703
N fixed	1.38	0.574	1.94	0.653	0.876	0.87	0.72	0.758	0.508
P fixed	0.155	0.299	0.204	0.591	1.83	0.446	1.35	0.544	1.46
Q fixed	1.56	0.847	1.02	0.605	1.35	1.23	0.962	0.943	0.999
R fixed	1.83	0.499	1.25	0.506	2.4	2.11	3.07	2.22	1.93
V fixed	0.932	0.96	0.59	1.42	0.804	1.55	0.773	0.938	1.73
W fixed	0.85	1.08	1.27	0.677	0.662	0.518	0.571	0.641	0.469
Y fixed	0.97	1.52	0.981	0.582	0.778	0.747	0.555	0.685	0.902
pThr fixed	0.547	0.29	0.216	0.269	0.566	0.279	0.724	0.748	0.793
pTyr fixed	0.534	0.459	0.32	0.268	0.417	0.427	0.519	0.447	0.752

TTBK2, construct: aa1-450, human (from UniProt Q6IQ55)
relative phosphorylation
Conditions	at +1	at +2	at +3	at +4	at -1	at -2	at -3	at -4	at -5
A fixed	0.693	1.88	1.11	1.02	0.912	1.25	0.986	0.998	1.03
D fixed	0.298	0.221	0.968	0.919	0.604	1.91	1.38	1.34	0.944
E fixed	0.913	0.22	1.42	0.928	0.64	1.36	1.2	1.08	0.905
F fixed	1.38	0.907	1.07	0.85	0.951	0.802	0.844	1.11	1.08
G fixed	0.29	0.615	1.21	1.17	0.563	0.964	1.19	1.18	1.28
H fixed	0.878	1.48	1.09	0.983	1.05	0.867	1.18	0.996	1.03
I fixed	1.72	1.07	1.01	0.853	1.24	0.742	0.949	0.881	0.99
K fixed	0.739	0.913	0.707	0.996	1.32	0.67	0.884	1.12	1.15
L fixed	1.5	0.733	1.03	0.822	1.12	1.29	0.807	0.811	0.699
M fixed	1.52	1.38	1.1	1	1.14	0.853	0.972	0.859	0.827
N fixed	0.329	0.553	0.594	0.92	0.942	1.07	1.04	0.841	0.847
P fixed	0.115	0.31	0.495	1.24	0.805	1.35	0.834	0.837	0.981
Q fixed	1.03	0.57	1	0.858	0.741	0.994	0.879	0.818	0.771
R fixed	1.1	1.8	0.801	1.29	1.71	0.743	1.13	1.06	1.41
V fixed	1.42	0.908	1.07	0.75	1.12	0.81	0.75	0.898	0.937
W fixed	1.45	1.91	1.1	1.4	0.93	0.69	0.885	1.08	0.946
Y fixed	1.63	1.54	1.23	0.998	1.22	0.643	1.09	1.1	1.18
pThr fixed	0.576	0.426	0.831	0.97	0.7	2.61	1.78	1.55	1.02
pTyr fixed	1.7	5.77	1.16	0.752	1.02	2.59	2.62	1.84	1.77

VRK2, construct: Full length, human (from UniProt Q86Y07)
relative phosphorylation
Conditions	at +1	at +2	at +3	at +4	at -1	at -2	at -3	at -4	at -5
A fixed	0.906	0.925	0.998	1.07	0.943	1	1.06	1.12	1.08
D fixed	0.579	0.622	0.675	0.977	0.788	0.836	0.812	0.845	0.97
E fixed	0.659	0.575	0.629	0.791	0.67	0.804	0.829	0.917	0.862
F fixed	0.883	1.23	1.05	1.04	0.86	0.978	0.971	0.957	0.974
G fixed	1.02	1.11	1.15	1.17	0.959	1.58	1.23	1.24	1.15
H fixed	0.842	0.985	1.28	1.14	1.39	1.04	1.12	1.04	1.17
I fixed	1.23	1.34	0.907	0.881	1.03	0.824	0.927	0.875	0.866
K fixed	0.949	0.924	0.875	0.887	1.04	0.919	0.881	0.945	0.979
L fixed	0.796	1.33	0.896	0.937	1.15	1.01	0.933	0.875	0.866
M fixed	1.01	1.27	0.872	0.954	1.02	1.16	0.98	0.96	0.885
N fixed	0.759	0.726	1.05	0.979	0.956	0.966	0.985	0.917	0.906
P fixed	1.15	0.703	0.759	1.03	1.1	1.08	1.27	1.22	1.16
Q fixed	1.13	0.873	0.875	0.905	0.914	0.969	0.878	0.887	0.922
R fixed	1.57	0.836	1.37	0.937	1.06	1.06	1.06	1.04	1.05
V fixed	1.53	1.07	0.935	0.912	1.22	0.877	0.936	0.996	0.974
W fixed	1.04	1.3	1.6	1.32	0.876	0.964	1.06	1.11	1.07
Y fixed	0.948	1.17	1.09	1.07	1.03	0.935	1.06	1.06	1.11
pThr fixed	0.648	0.686	0.733	1.08	0.83	0.792	0.923	1	1.01
pTyr fixed	0.826	0.883	0.914	1.4	0.861	0.8	0.982	1.02	0.981

WNK4, construct: aa1-444, human (from UniProt Q96J92)
relative phosphorylation
Conditions	at +1	at +2	at +3	at +4	at -1	at -2	at -3	at -4	at -5
A fixed	0.658	0.979	0.693	0.885	1.14	1.49	0.929	0.894	0.916
D fixed	0.249	0.57	0.62	0.54	0.287	0.305	0.389	0.579	0.489
E fixed	0.247	0.452	0.518	0.638	0.467	0.305	0.524	0.615	0.565
F fixed	1.13	0.977	2.1	1.3	0.788	0.821	0.748	0.864	1.21
G fixed	0.88	1.12	0.755	0.865	1.18	2.7	1.06	0.973	0.89
H fixed	0.813	0.973	1.35	1.12	1.05	1.54	1.16	1.21	1.21
I fixed	1.2	1.79	0.919	1.24	0.796	0.754	0.947	0.9	1.07
K fixed	0.918	0.872	1.06	1.29	1.66	1.03	1.64	1.6	1.27
L fixed	1.42	1.24	1.02	0.92	0.833	0.637	0.88	0.79	1.14
M fixed	1.96	1.31	1.04	1.1	1.58	0.708	1.02	0.924	0.986
N fixed	0.945	0.664	0.691	0.811	0.636	0.614	0.746	0.867	0.807
P fixed	0.242	0.318	0.514	0.713	0.452	1.31	0.93	0.674	0.628
Q fixed	1.17	0.522	0.565	0.673	0.952	0.573	0.741	0.88	0.639
R fixed	1.87	2.16	1.22	1.42	2.68	1.74	2.66	2.19	1.7
V fixed	0.973	1.16	0.848	0.969	0.812	0.972	0.959	0.877	0.891
W fixed	0.975	0.85	1.63	1.32	0.637	0.662	0.709	1.04	1.25
Y fixed	1.35	1.03	1.46	1.19	1.05	0.828	0.963	1.13	1.33
pThr fixed	0.386	0.407	0.388	0.617	0.444	0.683	0.809	0.732	0.731
pTyr fixed	0.565	0.537	0.612	0.674	0.727	0.471	0.708	0.527	0.764
